Experimental data reported in paper PMC9371974 (Nature Structural & Molecular Biology, 2022).

Key:
Details in all cases: both partners purified
[1] = biological target: recombinant mouse prion protein immobilised for SPR (mPrP) (Mus musculus, UniProt P04925); assay: SPR
[2] = biological target: mPrP immobilized on the SPR sensor chip (rmPrP) (Mus musculus, UniProt P04925); assay: SPR
[3] = biological target: full-length, recombinant mouse prion protein (rmPrP23-231) (Mus musculus, UniProt P04925); assay: FRET or BRET
Sequence of full-length, recombinant mouse prion protein (rmPrP23-231) (P04925 23-231): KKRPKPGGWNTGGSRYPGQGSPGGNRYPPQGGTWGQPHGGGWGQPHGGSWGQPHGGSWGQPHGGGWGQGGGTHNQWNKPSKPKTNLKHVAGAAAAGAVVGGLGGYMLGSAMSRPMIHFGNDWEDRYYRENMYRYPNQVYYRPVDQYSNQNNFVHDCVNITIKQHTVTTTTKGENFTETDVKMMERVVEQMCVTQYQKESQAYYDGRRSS

Sequence of recombinant mouse prion protein immobilised for SPR (mPrP) (P04925 23-230): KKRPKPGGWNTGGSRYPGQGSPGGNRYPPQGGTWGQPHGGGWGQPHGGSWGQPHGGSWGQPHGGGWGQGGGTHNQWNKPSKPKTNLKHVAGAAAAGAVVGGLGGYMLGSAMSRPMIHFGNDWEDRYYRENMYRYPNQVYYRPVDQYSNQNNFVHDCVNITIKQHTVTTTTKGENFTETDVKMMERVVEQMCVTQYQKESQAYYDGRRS
Sequence of mPrP immobilized on the SPR sensor chip (rmPrP) (P04925 23-230): as above

Row | Binder | Kd [1] | koff [1] | kon [1] | Kd [2] | Kd [3]
1 | pomolog hcY57A (POM1 scFv, heavy chain Y57A) (scFv, V domains shown) VH: QVQLQQSGTELVMPGASVKMSCKASGYTFTDYWMHWVKQRPGQGLEWIGSIDPSDSATSHNEKFKGKATLTVDESSSTAYMQLSSLTSEDSAVYFCSRSGYGYYAMEYWGQGTSVTVSS VL: DIVLTQSPAILSVSPGERVSFSCRASQNIGTSIHWYQQRTNESPRLIIKYASESISGIPSRFSGSGSGTDFTLSINSVESEDIADYYCQQSNTWPYTFGGGTKLELK | 406 nM | 0.031 s⁻¹ | 77000 M⁻¹ s⁻¹ | – | –
2 | pomolog hcY101A (POM1 scFv, heavy chain Y101A) (scFv, V domains shown) VH: QVQLQQSGTELVMPGASVKMSCKASGYTFTDYWMHWVKQRPGQGLEWIGSIDPSDSYTSHNEKFKGKATLTVDESSSTAYMQLSSLTSEDSAVYFCSRSGAGYYAMEYWGQGTSVTVSS VL: DIVLTQSPAILSVSPGERVSFSCRASQNIGTSIHWYQQRTNESPRLIIKYASESISGIPSRFSGSGSGTDFTLSINSVESEDIADYYCQQSNTWPYTFGGGTKLELK | 11 nM | 0.00071 s⁻¹ | 63000 M⁻¹ s⁻¹ | – | –
3 | POM1 scFv pomolog lcY96A (scFv, V domains shown) VH: QVQLQQSGTELVMPGASVKMSCKASGYTFTDYWMHWVKQRPGQGLEWIGSIDPSDSYTSHNEKFKGKATLTVDESSSTAYMQLSSLTSEDSAVYFCSRSGYGYYAMEYWGQGTSVTVSS VL: DIVLTQSPAILSVSPGERVSFSCRASQNIGTSIHWYQQRTNESPRLIIKYASESISGIPSRFSGSGSGTDFTLSINSVESEDIADYYCQQSNTWPATFGGGTKLELK | – | – | – | 123 nM | 138 nM
4 | pomolog lcY96A (POM1 scFv, light chain Y96A) (scFv, V domains shown) VH: QVQLQQSGTELVMPGASVKMSCKASGYTFTDYWMHWVKQRPGQGLEWIGSIDPSDSYTSHNEKFKGKATLTVDESSSTAYMQLSSLTSEDSAVYFCSRSGYGYYAMEYWGQGTSVTVSS VL: DIVLTQSPAILSVSPGERVSFSCRASQNIGTSIHWYQQRTNESPRLIIKYASESISGIPSRFSGSGSGTDFTLSINSVESEDIADYYCQQSNTWPATFGGGTKLELK | 123 nM | 0.0074 s⁻¹ | 62000 M⁻¹ s⁻¹ | – | –
5 | pomolog hcD52A (POM1 scFv, heavy chain D52A) (scFv, V domains shown) VH: QVQLQQSGTELVMPGASVKMSCKASGYTFTDYWMHWVKQRPGQGLEWIGSIAPSDSYTSHNEKFKGKATLTVDESSSTAYMQLSSLTSEDSAVYFCSRSGYGYYAMEYWGQGTSVTVSS VL: DIVLTQSPAILSVSPGERVSFSCRASQNIGTSIHWYQQRTNESPRLIIKYASESISGIPSRFSGSGSGTDFTLSINSVESEDIADYYCQQSNTWPYTFGGGTKLELK | 103 nM | 0.046 s⁻¹ | 330000 M⁻¹ s⁻¹ | – | –
6 | POM1 scFv pomolog lcS32A (scFv, V domains shown) VH: QVQLQQSGTELVMPGASVKMSCKASGYTFTDYWMHWVKQRPGQGLEWIGSIDPSDSYTSHNEKFKGKATLTVDESSSTAYMQLSSLTSEDSAVYFCSRSGYGYYAMEYWGQGTSVTVSS VL: DIVLTQSPAILSVSPGERVSFSCRASQNIGTAIHWYQQRTNESPRLIIKYASESISGIPSRFSGSGSGTDFTLSINSVESEDIADYYCQQSNTWPYTFGGGTKLELK | – | – | – | 9.98 nM | 7.3 nM
7 | POM1 scFv pomolog hcD52A (scFv, V domains shown) VH: QVQLQQSGTELVMPGASVKMSCKASGYTFTDYWMHWVKQRPGQGLEWIGSIAPSDSYTSHNEKFKGKATLTVDESSSTAYMQLSSLTSEDSAVYFCSRSGYGYYAMEYWGQGTSVTVSS VL: DIVLTQSPAILSVSPGERVSFSCRASQNIGTSIHWYQQRTNESPRLIIKYASESISGIPSRFSGSGSGTDFTLSINSVESEDIADYYCQQSNTWPYTFGGGTKLELK | – | – | – | 103 nM | 14.2 nM
8 | POM1 scFv pomolog lcS91A (scFv, V domains shown) VH: QVQLQQSGTELVMPGASVKMSCKASGYTFTDYWMHWVKQRPGQGLEWIGSIDPSDSYTSHNEKFKGKATLTVDESSSTAYMQLSSLTSEDSAVYFCSRSGYGYYAMEYWGQGTSVTVSS VL: DIVLTQSPAILSVSPGERVSFSCRASQNIGTSIHWYQQRTNESPRLIIKYASESISGIPSRFSGSGSGTDFTLSINSVESEDIADYYCQQANTWPYTFGGGTKLELK | – | – | – | 1430 nM | 92.3 nM
9 | POM1 scFv pomolog lcW94A (scFv, V domains shown) VH: QVQLQQSGTELVMPGASVKMSCKASGYTFTDYWMHWVKQRPGQGLEWIGSIDPSDSYTSHNEKFKGKATLTVDESSSTAYMQLSSLTSEDSAVYFCSRSGYGYYAMEYWGQGTSVTVSS VL: DIVLTQSPAILSVSPGERVSFSCRASQNIGTSIHWYQQRTNESPRLIIKYASESISGIPSRFSGSGSGTDFTLSINSVESEDIADYYCQQSNTAPYTFGGGTKLELK | – | – | – | 201 nM | 73.1 nM
10 | pomolog lcW94A (POM1 scFv, light chain W94A) (scFv, V domains shown) VH: QVQLQQSGTELVMPGASVKMSCKASGYTFTDYWMHWVKQRPGQGLEWIGSIDPSDSYTSHNEKFKGKATLTVDESSSTAYMQLSSLTSEDSAVYFCSRSGYGYYAMEYWGQGTSVTVSS VL: DIVLTQSPAILSVSPGERVSFSCRASQNIGTSIHWYQQRTNESPRLIIKYASESISGIPSRFSGSGSGTDFTLSINSVESEDIADYYCQQSNTAPYTFGGGTKLELK | 201 nM | 0.027 s⁻¹ | 310000 M⁻¹ s⁻¹ | – | –
11 | POM1 scFv pomolog hcD55A (scFv, V domains shown) VH: QVQLQQSGTELVMPGASVKMSCKASGYTFTDYWMHWVKQRPGQGLEWIGSIDPSASYTSHNEKFKGKATLTVDESSSTAYMQLSSLTSEDSAVYFCSRSGYGYYAMEYWGQGTSVTVSS VL: DIVLTQSPAILSVSPGERVSFSCRASQNIGTSIHWYQQRTNESPRLIIKYASESISGIPSRFSGSGSGTDFTLSINSVESEDIADYYCQQSNTWPYTFGGGTKLELK | – | – | – | 372 nM | 110 nM
12 | pomolog lcS32A (POM1 scFv, light chain S32A) (scFv, V domains shown) VH: QVQLQQSGTELVMPGASVKMSCKASGYTFTDYWMHWVKQRPGQGLEWIGSIDPSDSYTSHNEKFKGKATLTVDESSSTAYMQLSSLTSEDSAVYFCSRSGYGYYAMEYWGQGTSVTVSS VL: DIVLTQSPAILSVSPGERVSFSCRASQNIGTAIHWYQQRTNESPRLIIKYASESISGIPSRFSGSGSGTDFTLSINSVESEDIADYYCQQSNTWPYTFGGGTKLELK | 10 nM | 0.00059 s⁻¹ | 64000 M⁻¹ s⁻¹ | – | –
13 | pomolog hcY104A (POM1 scFv, heavy chain Y104A) (scFv, V domains shown) VH: QVQLQQSGTELVMPGASVKMSCKASGYTFTDYWMHWVKQRPGQGLEWIGSIDPSDSYTSHNEKFKGKATLTVDESSSTAYMQLSSLTSEDSAVYFCSRSGYGYAAMEYWGQGTSVTVSS VL: DIVLTQSPAILSVSPGERVSFSCRASQNIGTSIHWYQQRTNESPRLIIKYASESISGIPSRFSGSGSGTDFTLSINSVESEDIADYYCQQSNTWPYTFGGGTKLELK | 8.8 nM | 0.00021 s⁻¹ | 36000 M⁻¹ s⁻¹ | – | –
14 | POM1 scFv pomolog lcY50A (scFv, V domains shown) VH: QVQLQQSGTELVMPGASVKMSCKASGYTFTDYWMHWVKQRPGQGLEWIGSIDPSDSYTSHNEKFKGKATLTVDESSSTAYMQLSSLTSEDSAVYFCSRSGYGYYAMEYWGQGTSVTVSS VL: DIVLTQSPAILSVSPGERVSFSCRASQNIGTSIHWYQQRTNESPRLIIKAASESISGIPSRFSGSGSGTDFTLSINSVESEDIADYYCQQSNTWPYTFGGGTKLELK | – | – | – | 313 nM | 63.4 nM
15 | POM1 scFv pomolog hcY101A (scFv, V domains shown) VH: QVQLQQSGTELVMPGASVKMSCKASGYTFTDYWMHWVKQRPGQGLEWIGSIDPSDSYTSHNEKFKGKATLTVDESSSTAYMQLSSLTSEDSAVYFCSRSGAGYYAMEYWGQGTSVTVSS VL: DIVLTQSPAILSVSPGERVSFSCRASQNIGTSIHWYQQRTNESPRLIIKYASESISGIPSRFSGSGSGTDFTLSINSVESEDIADYYCQQSNTWPYTFGGGTKLELK | – | – | – | 11.5 nM | 1.5 nM
16 | POM1 scFv pomolog hcY57A (scFv, V domains shown) VH: QVQLQQSGTELVMPGASVKMSCKASGYTFTDYWMHWVKQRPGQGLEWIGSIDPSDSATSHNEKFKGKATLTVDESSSTAYMQLSSLTSEDSAVYFCSRSGYGYYAMEYWGQGTSVTVSS VL: DIVLTQSPAILSVSPGERVSFSCRASQNIGTSIHWYQQRTNESPRLIIKYASESISGIPSRFSGSGSGTDFTLSINSVESEDIADYYCQQSNTWPYTFGGGTKLELK | – | – | – | 406 nM | 225 nM
17 | pomolog lcS91A (POM1 scFv, light chain S91A) (scFv, V domains shown) VH: QVQLQQSGTELVMPGASVKMSCKASGYTFTDYWMHWVKQRPGQGLEWIGSIDPSDSYTSHNEKFKGKATLTVDESSSTAYMQLSSLTSEDSAVYFCSRSGYGYYAMEYWGQGTSVTVSS VL: DIVLTQSPAILSVSPGERVSFSCRASQNIGTSIHWYQQRTNESPRLIIKYASESISGIPSRFSGSGSGTDFTLSINSVESEDIADYYCQQANTWPYTFGGGTKLELK | 1430 nM | 0.018 s⁻¹ | 13000 M⁻¹ s⁻¹ | – | –
18 | pomolog lcY50A (POM1 scFv, light chain Y50A) (scFv, V domains shown) VH: QVQLQQSGTELVMPGASVKMSCKASGYTFTDYWMHWVKQRPGQGLEWIGSIDPSDSYTSHNEKFKGKATLTVDESSSTAYMQLSSLTSEDSAVYFCSRSGYGYYAMEYWGQGTSVTVSS VL: DIVLTQSPAILSVSPGERVSFSCRASQNIGTSIHWYQQRTNESPRLIIKAASESISGIPSRFSGSGSGTDFTLSINSVESEDIADYYCQQSNTWPYTFGGGTKLELK | 313 nM | 0.0082 s⁻¹ | 57000 M⁻¹ s⁻¹ | – | –
19 | POM1 scFv pomolog hcY104A (scFv, V domains shown) VH: QVQLQQSGTELVMPGASVKMSCKASGYTFTDYWMHWVKQRPGQGLEWIGSIDPSDSYTSHNEKFKGKATLTVDESSSTAYMQLSSLTSEDSAVYFCSRSGYGYAAMEYWGQGTSVTVSS VL: DIVLTQSPAILSVSPGERVSFSCRASQNIGTSIHWYQQRTNESPRLIIKYASESISGIPSRFSGSGSGTDFTLSINSVESEDIADYYCQQSNTWPYTFGGGTKLELK | – | – | – | 8.79 nM | 26 nM
20 | pomolog hcD55A (POM1 scFv, heavy chain D55A) (scFv, V domains shown) VH: QVQLQQSGTELVMPGASVKMSCKASGYTFTDYWMHWVKQRPGQGLEWIGSIDPSASYTSHNEKFKGKATLTVDESSSTAYMQLSSLTSEDSAVYFCSRSGYGYYAMEYWGQGTSVTVSS VL: DIVLTQSPAILSVSPGERVSFSCRASQNIGTSIHWYQQRTNESPRLIIKYASESISGIPSRFSGSGSGTDFTLSINSVESEDIADYYCQQSNTWPYTFGGGTKLELK | 372 nM | 0.037 s⁻¹ | 100000 M⁻¹ s⁻¹ | – | –
